Tested on: peptide library, one residue held at a place counted from the Y acceptor
Test: relative phosphorylation of the sub-library (ratio to the mean residue at this position); higher = residue favoured
Method in brief: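 In 384-well plates, purified recombinant kinases were incubated for 90 min with 50 μM ATP containing γ-32P-ATP and biotinylated Tyr-centred peptide libraries, each mixture fixing one residue at a single position between −5 and +5. After capture on streptavidin membranes and rinsing, peptides were quantified by phosphorimaging with ImageQuant. Per-position intensities were scaled to the sum of the 18 (Ser/Thr-free library: 16) randomized residues, then multiplied by that number.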

CSF1R, construct: aa539-end, human, sequence (P07333 539-972, looked up): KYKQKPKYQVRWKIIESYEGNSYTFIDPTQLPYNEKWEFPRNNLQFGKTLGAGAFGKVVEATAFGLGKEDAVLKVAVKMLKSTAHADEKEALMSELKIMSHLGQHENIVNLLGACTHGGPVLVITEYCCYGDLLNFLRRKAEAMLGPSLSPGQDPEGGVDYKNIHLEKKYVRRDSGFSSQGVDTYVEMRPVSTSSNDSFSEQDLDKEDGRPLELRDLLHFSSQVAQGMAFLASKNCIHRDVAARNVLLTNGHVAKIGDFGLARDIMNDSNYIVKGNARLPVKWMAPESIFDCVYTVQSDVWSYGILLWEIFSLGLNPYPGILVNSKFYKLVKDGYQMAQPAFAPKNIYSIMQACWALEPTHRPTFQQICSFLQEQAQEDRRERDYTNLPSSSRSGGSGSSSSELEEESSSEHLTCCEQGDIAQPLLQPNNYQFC
DDR2, construct: aa522-end, human, sequence (Q16832 522-855, looked up): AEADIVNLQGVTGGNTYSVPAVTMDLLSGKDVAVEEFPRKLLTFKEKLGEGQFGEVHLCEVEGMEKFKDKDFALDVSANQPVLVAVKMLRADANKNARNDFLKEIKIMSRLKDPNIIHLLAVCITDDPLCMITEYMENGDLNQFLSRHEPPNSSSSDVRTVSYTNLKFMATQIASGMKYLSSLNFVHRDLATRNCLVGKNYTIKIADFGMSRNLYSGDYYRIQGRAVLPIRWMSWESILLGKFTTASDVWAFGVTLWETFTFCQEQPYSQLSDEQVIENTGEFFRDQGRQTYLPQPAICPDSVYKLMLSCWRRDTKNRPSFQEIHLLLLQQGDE
CSK, construct: Full length, human, sequence (P41240 whole entry, looked up): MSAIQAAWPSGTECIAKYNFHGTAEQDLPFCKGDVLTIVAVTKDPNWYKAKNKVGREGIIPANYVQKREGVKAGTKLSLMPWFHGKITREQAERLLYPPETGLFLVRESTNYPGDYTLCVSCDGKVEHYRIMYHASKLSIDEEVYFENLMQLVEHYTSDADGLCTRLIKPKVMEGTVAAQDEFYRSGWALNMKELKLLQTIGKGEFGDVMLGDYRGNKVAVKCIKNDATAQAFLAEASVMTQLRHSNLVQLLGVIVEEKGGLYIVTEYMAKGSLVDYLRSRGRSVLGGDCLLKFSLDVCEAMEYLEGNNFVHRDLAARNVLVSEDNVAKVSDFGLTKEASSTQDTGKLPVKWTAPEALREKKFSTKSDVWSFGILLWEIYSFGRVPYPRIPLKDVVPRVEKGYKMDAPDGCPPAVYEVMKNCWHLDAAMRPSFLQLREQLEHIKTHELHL

CSF1R, construct: aa539-end, human (from UniProt P07333)
relative phosphorylation
Conditions | at +1 | at +2 | at +3 | at +4 | at +5 | at -1 | at -2 | at -3 | at -4 | at -5
A fixed | 0.891 | 0.881 | 0.64 | 0.958 | 0.873 | 0.884 | 1.16 | 1.02 | 1.07 | 1.09
D fixed | 0.331 | 0.636 | 0.32 | 0.718 | 0.844 | 1.13 | 1.11 | 1.36 | 1.3 | 1.14
E fixed | 0.638 | 0.924 | 0.246 | 0.784 | 0.832 | 1.06 | 1.17 | 1.77 | 1.47 | 1.06
F fixed | 1.89 | 1.09 | 1.97 | 1.27 | 0.977 | 1.04 | 0.617 | 0.741 | 0.821 | 0.963
G fixed | 0.444 | 0.508 | 0.633 | 1.15 | 1.43 | 0.656 | 1.22 | 1.27 | 1.23 | 1.2
H fixed | 1.74 | 0.993 | 0.863 | 1.15 | 1.05 | 1.77 | 0.992 | 0.973 | 0.923 | 1
I fixed | 1.67 | 1.04 | 2.14 | 0.891 | 0.781 | 1.62 | 0.834 | 0.63 | 0.846 | 0.783
K fixed | 0.674 | 0.951 | 0.632 | 1.01 | 1.05 | 0.535 | 0.751 | 0.731 | 0.878 | 0.98
L fixed | 1.3 | 1.21 | 1.93 | 0.874 | 0.689 | 1.23 | 0.952 | 0.763 | 0.858 | 0.817
M fixed | 1.2 | 1.05 | 1.67 | 1.06 | 0.927 | 0.91 | 0.757 | 0.755 | 0.863 | 0.909
N fixed | 0.512 | 0.965 | 0.523 | 0.975 | 1.08 | 1.15 | 1.16 | 1.21 | 0.936 | 1.12
P fixed | 0.565 | 0.847 | 1.13 | 0.922 | 1.34 | 1.05 | 1.6 | 1.17 | 1.34 | 1.29
Q fixed | 0.973 | 0.989 | 0.519 | 0.965 | 0.931 | 0.919 | 1.03 | 1.07 | 0.921 | 0.93
R fixed | 0.745 | 1.31 | 0.929 | 1.36 | 1.2 | 0.474 | 0.844 | 0.786 | 0.782 | 0.871
S fixed | 0.721 | 0.893 | 0.604 | 1.02 | 1.24 | 0.687 | 1.2 | 1.14 | 0.97 | 1.03
T fixed | 0.938 | 1.11 | 0.856 | 1.04 | 1.07 | 1.08 | 1.08 | 1.12 | 0.899 | 1.01
V fixed | 1.56 | 1.11 | 1.47 | 0.851 | 0.756 | 1.12 | 0.939 | 0.748 | 0.866 | 0.859
W fixed | 1.2 | 1.49 | 0.91 | 1.01 | 0.928 | 0.678 | 0.575 | 0.745 | 1.02 | 0.943
pThr fixed | 0.739 | 1.17 | 0.232 | 0.432 | 0.567 | 1.02 | 0.996 | 1.2 | 1.12 | 0.956
pTyr fixed | 1.61 | 1.25 | 0.341 | 0.698 | 0.773 | 1.87 | 1.01 | 1.11 | 1.16 | 1

CSK, construct: Full length, human (from UniProt P41240)
relative phosphorylation
Conditions | at +1 | at +2 | at +3 | at +4 | at +5 | at -1 | at -2 | at -3 | at -4 | at -5
A fixed | 1.41 | 0.875 | 0.728 | 0.981 | 1.32 | 0.815 | 1.34 | 0.852 | 1.16 | 1.05
D fixed | 0.482 | 1.38 | 0.566 | 1.08 | 0.834 | 0.976 | 0.757 | 1.29 | 1.3 | 1.07
E fixed | 0.852 | 1.46 | 0.505 | 1.36 | 0.948 | 1.78 | 0.958 | 2.98 | 1.99 | 1.16
F fixed | 1.31 | 1.36 | 2.01 | 1.1 | 1.07 | 1.38 | 0.554 | 0.79 | 1.12 | 1.37
G fixed | 0.515 | 0.485 | 0.648 | 1.17 | 1.14 | 0.362 | 1.07 | 0.915 | 1.23 | 1.15
H fixed | 1.03 | 0.914 | 0.901 | 1.22 | 1.13 | 1.2 | 0.684 | 0.839 | 0.869 | 0.994
I fixed | 1.71 | 1.07 | 2.04 | 0.759 | 0.869 | 2.44 | 1.14 | 0.774 | 0.913 | 1.05
K fixed | 0.4 | 0.606 | 0.389 | 0.815 | 0.684 | 0.472 | 0.659 | 0.867 | 0.812 | 0.748
L fixed | 1.13 | 1.08 | 1.07 | 0.746 | 1.02 | 1.24 | 0.761 | 0.763 | 0.86 | 1.07
M fixed | 1.1 | 0.839 | 1.01 | 1.06 | 0.937 | 0.9 | 0.558 | 0.832 | 0.866 | 1.01
N fixed | 0.362 | 1.06 | 0.509 | 0.875 | 0.974 | 0.679 | 0.765 | 0.901 | 0.705 | 0.845
P fixed | 0.23 | 0.59 | 1.02 | 1.08 | 1.39 | 0.395 | 2.04 | 0.944 | 1.03 | 1.01
Q fixed | 0.988 | 0.791 | 0.607 | 0.992 | 0.954 | 0.691 | 0.952 | 0.772 | 1.07 | 0.839
R fixed | 0.524 | 0.757 | 0.46 | 0.859 | 0.717 | 0.409 | 0.738 | 0.976 | 0.758 | 0.735
S fixed | 0.787 | 0.978 | 0.734 | 0.868 | 1.14 | 0.533 | 1.47 | 0.958 | 0.826 | 0.943
T fixed | 0.803 | 0.829 | 0.689 | 0.879 | 1.07 | 0.926 | 1.16 | 0.918 | 0.715 | 0.897
V fixed | 1.67 | 1.03 | 1.6 | 0.831 | 0.769 | 1.65 | 1.81 | 0.769 | 0.778 | 0.831
W fixed | 2.7 | 1.9 | 2.52 | 1.34 | 1.03 | 1.16 | 0.576 | 0.859 | 1.01 | 1.22
pThr fixed | 1.23 | 1.87 | 0.582 | 1.12 | 0.922 | 1.02 | 0.787 | 1.35 | 1.03 | 1.02
pTyr fixed | 3.21 | 7.03 | 1.05 | 1.36 | 1.64 | 4.72 | 1.71 | 2.14 | 2.83 | 1.74

DDR2, construct: aa522-end, human (from UniProt Q16832)
relative phosphorylation
Conditions | at +1 | at +2 | at +3 | at +4 | at +5 | at -1 | at -2 | at -3 | at -4 | at -5
A fixed | 2.33 | 0.781 | 0.51 | 0.457 | 0.507 | 1.2 | 0.969 | 0.938 | 0.924 | 1.1
D fixed | 0.221 | 0.71 | 0.309 | 1.13 | 0.445 | 1.83 | 0.707 | 0.692 | 0.688 | 0.848
E fixed | 0.206 | 1.66 | 0.283 | 1.36 | 0.393 | 0.583 | 0.635 | 0.567 | 0.724 | 0.771
F fixed | 0.905 | 0.738 | 1.38 | 2.06 | 2.29 | 0.517 | 0.358 | 1.13 | 0.728 | 0.723
G fixed | 0.361 | 0.37 | 0.296 | 0.372 | 0.632 | 0.617 | 1.19 | 1.09 | 1.43 | 1.38
H fixed | 0.894 | 0.92 | 0.901 | 1.63 | 0.817 | 1.14 | 1.58 | 1.82 | 1.29 | 1.17
I fixed | 1.13 | 1.08 | 3.3 | 1.09 | 2.43 | 0.879 | 0.316 | 0.472 | 0.627 | 0.548
K fixed | 0.899 | 0.687 | 0.35 | 0.56 | 0.607 | 0.653 | 1.85 | 1.44 | 1.6 | 1.42
L fixed | 0.602 | 1.42 | 1.94 | 0.851 | 1.4 | 0.828 | 0.449 | 0.466 | 0.581 | 0.702
M fixed | 1.12 | 1.3 | 2.09 | 0.824 | 1.08 | 0.593 | 0.597 | 0.534 | 0.933 | 0.787
N fixed | 0.502 | 1.03 | 0.365 | 1.05 | 0.747 | 2.72 | 1.66 | 1.3 | 0.985 | 1.01
P fixed | 0.745 | 0.655 | 0.306 | 0.383 | 0.962 | 1.57 | 1.55 | 1.15 | 1.52 | 1.45
Q fixed | 0.823 | 0.933 | 0.505 | 1.02 | 0.56 | 0.829 | 1.1 | 0.917 | 1.01 | 0.996
R fixed | 1.38 | 0.825 | 0.49 | 0.88 | 0.861 | 0.656 | 2.03 | 1.96 | 1.89 | 1.67
S fixed | 1.04 | 1.14 | 0.464 | 0.701 | 0.586 | 0.989 | 1.21 | 0.968 | 0.876 | 1.02
T fixed | 1.54 | 1.18 | 0.991 | 0.855 | 0.688 | 1.11 | 1.03 | 0.906 | 0.858 | 0.905
V fixed | 2.79 | 1.32 | 1.95 | 1.02 | 1.76 | 0.839 | 0.372 | 0.553 | 0.651 | 0.73
W fixed | 0.511 | 1.24 | 1.58 | 1.76 | 1.24 | 0.438 | 0.383 | 1.1 | 0.679 | 0.754
pThr fixed | 0.698 | 1.61 | 0.5 | 1.87 | 0.616 | 0.706 | 0.487 | 0.467 | 0.612 | 0.696
pTyr fixed | 0.68 | 2.07 | 0.439 | 2.16 | 0.38 | 0.474 | 0.473 | 0.614 | 0.613 | 0.75

From the supplement of paper PMC11136658
